B1: Zinc finger homeobox protein 3, residues 2147 to 2202; numbered along this chain, Q15911 (parent)
chain: RPRTRITDDQLRVLRQYFDINNSPSEEQIKEMADKSGLPQKVIKHWFRNTLFKERQ

Variants of: B1
Assay: abundance fitness (aPCA) (normalised: wild type 0, dead -1); higher = more abundant; growth selection in yeast, the domain comes from the species named
Details: Homo sapiens

Abundance fitness, by site and new letter:
S25: V -0.356 | N -0.196 | I -0.361 | R -0.202 | G 0.024 | K -0.045 | A -0.14 | W -0.901 | P -0.191 | D -0.225 | Q -0.223 | H -0.537 | M -0.523 | T 0.012 | E -0.111 | C -0.244 | F -0.623 | Y -0.382
N21: L -0.256 | S -0.013 | F -0.421 | H -0.01 | V -0.171 | M -0.103 | K -0.018 | Q -0.105 | E -0.005 | C -0.14 | Y 0.014 | I -0.276 | D -0.102 | W -0.38 | T 0.152 | G -0.153 | A -0.008 | P -0.335
N22: P -0.035 | E -0.057 | M 0.038 | F -0.222 | W -0.19 | A 0.022 | K -0.085 | Q 0.038 | T 0.079 | G -0.152 | H 0.219 | L -0.092 | S 0.001 | C 0.001 | D -0.189 | V -0.022 | R 0.116 | Y -0.076 | I -0.052
E27: I -0.05 | V 0.013 | L -0.102 | A 0.027 | D 0.075 | C -0.019 | M -0.039 | K 0.124 | P -0.078 | W -0.341 | H -0.147 | R -0.046 | Q 0.034 | Y -0.08 | G -0.071 | T -0.011 | S 0.024
Q16: V -0.162 | W -0.09 | T -0.012
E31: T -0.011 | I -0.252 | G -0.316 | S -0.196 | Y -0.448 | N -0.399 | V -0.079 | P -1.03 | D 0.047 | W -0.404 | A -0.151 | K -0.017 | Q -0.507 | F -0.375 | C -0.213 | M -0.133 | L -0.259 | R -0.282 | H -0.168
E26: Y 0.004 | H -0.001 | Q 0.171 | N -0.082 | P 0.031 | T -0.057 | W -0.265 | I 0.086 | A -0.043 | D 0.063 | V -0.082 | G -0.192 | M -0.133 | L -0.089 | F -0.071 | R -0.093 | K -0.016 | C 0.024
K35: F -0.336 | H -0.536 | N -0.138 | S -0.222 | A -0.279 | M -0.216 | T -0.189 | R -0.175 | E -0.168 | I -0.329 | C -0.382 | G -0.402 | L -0.163 | Q 0.014 | P -0.998 | D -0.297
I29: W -0.387 | L 0.09 | R -0.507 | Q -0.225 | N -0.44 | D -1.17 | E -0.334 | K -0.634 | C -0.279 | M -0.008 | P -0.838 | S -0.491 | A -0.476 | G -0.827 | Y -0.189 | H -0.282 | T -0.109
A33: M -0.083 | L -0.511 | N -0.21 | Q -0.185 | D -0.879 | V -0.186 | Y -0.299 | C -0.158 | P -0.908 | W -0.556 | E 0.038 | K -0.357 | H 0.254 | R -0.163 | S -0.054 | G -0.212
Q28: L -0.205 | D -0.278 | W -0.642 | F -0.562 | K -0.327 | E -0.102 | N -0.171 | R -0.221 | A -0.042 | I -0.033 | Y -0.385 | C -0.423 | G -0.209 | V -0.064 | H -0.058 | M -0.168
F18: S -0.1 | L -0.137 | M -0.15 | N -0.451 | W 0.022 | K -0.039 | A -0.187 | R -0.069 | H -0.259 | V -0.333 | Y 0.016 | E -0.555 | Q -0.203 | C -0.161 | G -0.263 | T -0.109 | D -0.419
D34: K 0.02 | G -0.011 | E 0.207 | L -0.123 | P -0.582 | F 0.013 | N 0.082 | I -0.088 | T 0.053 | A 0.071 | M -0.097 | C -0.039 | Y -0.253 | V -0.063 | R -0.086 | W -0.318 | Q -0.112 | H 0.061 | S -0.002
Y17: V -0.153 | H -0.127 | E -0.168 | Q -0.196 | T -0.369 | I -0.175 | A -0.165 | L -0.133 | P -0.838 | R -0.369 | M 0.083 | C -0.204 | F 0.026 | S -0.207 | D -0.184 | W -0.181 | N -0.095
D19: S -0.015 | G -0.125 | W -0.131 | M 0.044 | H -0.034 | F -0.171 | R -0.031 | V 0.014 | K 0.101 | Q -0.207 | I -0.051 | C -0.094 | L 0.032 | T -0.02 | N -0.056 | P -0.336 | Y 0.044 | E 0.022
I20: L -0.036 | K -0.081 | V -0.074 | T -0.052 | W -0.184 | N 0.008 | Y -0.237 | F -0.037 | Q -0.019 | E -0.228 | C 0.1 | G -0.045 | P 0.036 | H -0.001 | A 0.009 | M 0.02 | D -0.087
M32: Q -0.774 | E -0.987 | K -1.03 | N -1.08 | A -0.338 | T -0.584 | D -0.466 | F -0.383 | Y -0.317 | S -0.882 | V -0.164 | L -0.181 | C -0.407 | R -1.18 | I -0.191 | P -1.15
K30: M -0.107 | S -0.205 | C -0.217 | D -0.155 | Q -0.323 | W -0.537 | H -0.161 | T -0.061 | R -0.193 | P -0.679 | G -0.188 | F -0.264 | N -0.637 | I -0.133 | A -0.006 | L -0.239
P24: V -0.413 | Y -0.519 | C -0.534 | M -0.5 | E -0.673 | I -0.652 | A -0.606 | W -0.485 | H -0.566 | F -0.746 | N -0.873 | T -0.585 | D -0.8 | Q -0.747 | S -1 | R -0.716 | L -0.315 | G -0.685
S23: F -0.025 | V -0.216 | Q 0.004 | C 0.081 | M -0.035 | G -0.268 | A -0.033 | I -0.501 | P -0.21 | R -0.085 | N -0.14 | H 0.055 | L -0.149 | W -0.243 | T 0.102 | K -0.07 | D 0.076 | Y -0.255 | E -0.123
